# Measured values reported in US20200384081A1 (Janssen / Centocor, published 2020).
# Changes are numbered by the printed parent chain.
# T1: human p40 single mutant S43R (human, UniProt P29460 23-328)
# T1 construct: HEK293E supernatant
# T1 sequence: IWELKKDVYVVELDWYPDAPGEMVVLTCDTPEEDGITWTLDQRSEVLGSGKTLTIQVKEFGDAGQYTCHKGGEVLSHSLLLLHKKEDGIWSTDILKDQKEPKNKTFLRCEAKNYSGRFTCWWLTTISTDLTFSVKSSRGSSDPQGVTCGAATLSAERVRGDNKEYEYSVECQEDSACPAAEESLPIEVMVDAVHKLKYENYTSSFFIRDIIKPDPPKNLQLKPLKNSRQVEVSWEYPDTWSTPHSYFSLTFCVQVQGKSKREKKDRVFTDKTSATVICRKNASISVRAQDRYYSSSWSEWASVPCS
# T2: human p40 single mutant E45A (human, UniProt P29460 23-328)
# T2 construct: HEK293E supernatant
# T2 sequence: T1 sequence with R43S, E45A
# T3: human p40 single mutant L40T (human, UniProt P29460 23-328)
# T3 construct: HEK293E supernatant
# T3 sequence: T1 sequence with L40T, R43S
# T4: human p40 single mutant M23T (human, UniProt P29460 23-328)
# T4 construct: HEK293E supernatant
# T4 sequence: T1 sequence with M23T, R43S
# B1: IL-12/IL-23p40 mAb (antibody, V domains shown)
# VH: EVQLVQSGAEVKKPGESLKISCKGSGYSFTTYWLGWVRQMPGKGLDWIGIMSPVDSDIRYSPSFQGQVTMSVDKSITTAYLQWNSLKASDTAMYYCARRRPGQGYFDFWGQGTLVTVSS
# VL: DIQMTQSPSSLSASVGDRVTITCRASQGISSWLAWYQQKPEKAPKSLIYAASSLQSGVPSRFSGSGSGTDFTLTISSLQPEDFATYYCQQYNIYPYTFGQGTKLEIKR
# notes: Fully human monoclonal IgG from a mammalian cell line, purified on protein A; also called IL-12/23p40 mAb; IL-12 p40 antibody
# Assays:
# IL-12 (mouse) (mouse) = IL-12 (mouse) (mouse) (UniProt P43432); test: cell-based or functional assay; details: scale: fold more effective than the anti-p35 mAb
# Sequence of IL-12 (mouse) (mouse) (P43432 23-335 limits assumed, chain 1 of 2): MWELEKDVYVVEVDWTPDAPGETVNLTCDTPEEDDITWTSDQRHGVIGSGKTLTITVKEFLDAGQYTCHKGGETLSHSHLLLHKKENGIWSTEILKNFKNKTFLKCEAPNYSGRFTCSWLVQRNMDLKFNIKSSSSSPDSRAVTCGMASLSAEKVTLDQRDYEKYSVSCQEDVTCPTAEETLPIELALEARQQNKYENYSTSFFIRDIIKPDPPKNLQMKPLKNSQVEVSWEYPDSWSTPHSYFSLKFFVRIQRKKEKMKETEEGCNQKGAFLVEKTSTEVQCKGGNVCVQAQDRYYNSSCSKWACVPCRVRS
# Sequence of IL-12 (mouse) (mouse) (P43431 23-215 limits assumed, chain 2 of 2, further chain): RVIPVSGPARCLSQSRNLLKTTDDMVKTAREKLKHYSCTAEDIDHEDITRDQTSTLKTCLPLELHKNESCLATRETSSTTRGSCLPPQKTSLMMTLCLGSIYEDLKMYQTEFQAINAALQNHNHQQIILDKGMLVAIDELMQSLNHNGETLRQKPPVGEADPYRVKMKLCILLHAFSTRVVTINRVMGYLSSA
# [1] = target: T1, human p40 single mutant S43R; test: capture assay, relative binding affinity of the mAb to p40 muteins (FIG. 4)
# Procedure: (§1) In brief, MSD high bind plates (Meso Scale Discovery, MD) were coated with 5 μl of a capture monoclonal antibody (5 μg/ml) at room temperature for 1 hour. […] One-hundred and fifty (150) μl of 5% MSD Blocker A buffer was added to each well and incubated for 1 hr at room temperature. Plates were washed three times with 0.1 M HEPES buffer (pH 7.4). These protein-charged ELISA plates were incubated with 25 μl of different transiently expressed p40 mutant supernatants (1:10 dilution with 0.1 M HEPES buffer, pH 7.4) for 1 hr at room temperature. The plates were washed three times with 0.1 M HEPES buffer (pH 7.4). Twenty-five (25) μ1 of different concentrations of MSD Sulfo-TAG labeled p40 mAb, ranging from 0 to 20 μg/ml, were dispensed to micro-wells. After incubation for 2 hrs shaking at room temperature, plates were washed 3 times with 0.1 M HEPES buffer (pH 7.4). One hundred and fifty (150) μ1 of diluted MSD Read Buffer T was dispensed into each well and the plates were analyzed with a SECTOR imager (MSD).
# [2] = target: T2, human p40 single mutant E45A; test: as above
# Procedure: as §1
# [3] = target: T3, human p40 single mutant L40T; test: as above
# Procedure: as §1
# [4] = target: T4, human p40 single mutant M23T; test: as above
# Procedure: as §1
Molecule,neutralizing IL-12 (in vitro neutralization studies) (IL-12 (mouse) (mouse)),reduction of binding [1] [%],reduction of binding [2] [%],reduction of binding [3] [%],reduction of binding [4] [%]
"C17.8 (rat anti-mouse IL-12/IL-23p40, IgG2a) (antibody)",5,–,–,–,–
B1,–,~40,~70,~40,~40
